Where a chain is given by its changes, count along the chain named.
Tests used:
[1] = molecular target: T1, Tetracycline repressor protein (TetR) (UniProt P04483 P04483:1-207); assay: flow; 50 mM Tris pH 8.0, 50 mM KCl, 5 mM MgCl2, room temperature; repression 56% cell-free, 75% yeast; conditions: tags: N-terminal T7 tag, C-terminal His6 (pET24a); chain copies: 2 (inferred, TetR dimer); label: 3' fluorescein
Protocol: (§1) Quantitative affinity measurements of aptamer interactions with TetR were performed as described previously. Brodsky et al, “A microbead-based system for identifying and characterizing RNA-protein interactions by flow cytometry” Mol Cell Proteomics 1:922-929 (2002); and Warren et al, “A novel binding assay to assess specificity of monoclonal antibodies” J Immunol Methods 305:33-38 (2005). Dynabeads TALON® (Invitrogen) (1 μL) were washed with Affinity Binding Buffer (ABB) (BB+10 μg/mL BSA) and centrifuged at 250×g for 2 mins. Beads were resuspended in ABB and incubated with 60 μg of purified His₆-tagged TetR for 1 h at room temperature. TetR-coated beads were washed twice and resuspended in ABB. Beads were counted by microscopy, and 70,000 beads were placed per well in a 96-well microplate. Fluorescein-labeled RNA in ABB was added to the beads. […] The median fluorescence intensities of the samples were plotted against RNA or DNA concentration using GraphPad Prism® 5 (GraphPad Software, Inc.).
(§2) This example presents a data summary of the various constructs tested for TetR-aptamer binding, cell-free translation, and yeast in vivo expression experiments. Translational repression is reported as the luminescence intensity of the uninduced condition relative to the induced condition. The binding of RNA aptamers to TetR was measured by flow cytometry. […]

[2] = molecular target: T1, Tetracycline repressor protein (TetR); assay: flow; 50 mM Tris pH 8.0, 50 mM KCl, 5 mM MgCl2, room temperature; no significant translation repression; conditions: tags: N-terminal T7 tag, C-terminal His6 (pET24a); chain copies: 2 (inferred, TetR dimer); label: 3' fluorescein
Protocol: as §1, §2

[3] = molecular target: T1, Tetracycline repressor protein (TetR); assay: flow; IRE does not bind TetR with high affinity; no translation repression; conditions: tags: N-terminal T7 tag, C-terminal His6 (pET24a); chain copies: 2 (inferred, TetR dimer); hairpin
Protocol: Quantitative affinity measurements of aptamer interactions with TetR were performed as described previously. Brodsky et al, “A microbead-based system for identifying and characterizing RNA-protein interactions by flow cytometry” Mol Cell Proteomics 1:922-929 (2002); and Warren et al, “A novel binding assay to assess specificity of monoclonal antibodies” J Immunol Methods 305:33-38 (2005). Dynabeads TALON® (Invitrogen) (1 μL) were washed with Affinity Binding Buffer (ABB) (BB+10 μg/mL BSA) and centrifuged at 250×g for 2 mins. Beads were resuspended in ABB and incubated with 60 μg of purified His₆-tagged TetR for 1 h at room temperature. TetR-coated beads were washed twice and resuspended in ABB. Beads were counted by microscopy, and 70,000 beads were placed per well in a 96-well microplate. Fluorescein-labeled RNA in ABB was added to the beads. Nonspecific RNA interactions were reduced by adding 10 μg/mL yeast tRNA. The binding reaction proceeded with moderate shaking for 4 h at room temperature. […] The median fluorescence intensities of the samples were plotted against RNA or DNA concentration using GraphPad Prism® 5 (GraphPad Software, Inc.).
Several aptamers, but not the iron-responsive element, bind TetR with high affinity. […] Reporter expression was measured in a rabbit reticulocyte cell-free system or in S. cerevisiae in the presence and absence of the inducer aTc.

[4] = molecular target: T1, Tetracycline repressor protein (TetR); assay: flow; 50 mM Tris pH 8.0, 50 mM KCl, 5 mM MgCl2, room temperature; repression 91% cell-free, 81% yeast; conditions: tags: N-terminal T7 tag, C-terminal His6 (pET24a); chain copies: 2 (inferred, TetR dimer); label: 3' fluorescein; stem-loop
Protocol: as §1, §2

[5] = molecular target: T1, Tetracycline repressor protein (TetR); assay: flow; binding listed as NS; no translation repression; conditions: tags: N-terminal T7 tag, C-terminal His6 (pET24a); chain copies: 2 (inferred, TetR dimer); label: 3' fluorescein
Protocol: as §1, §2

[6] = molecular target: T1, Tetracycline repressor protein (TetR); assay: flow; 50 mM Tris pH 8.0, 50 mM KCl, 5 mM MgCl2, room temperature; repression NS cell-free, 9% yeast; conditions: tags: N-terminal T7 tag, C-terminal His6 (pET24a); chain copies: 2 (inferred, TetR dimer); label: 3' fluorescein
Protocol: as §1, §2

T1 sequence (P04483 whole entry, one chain of several): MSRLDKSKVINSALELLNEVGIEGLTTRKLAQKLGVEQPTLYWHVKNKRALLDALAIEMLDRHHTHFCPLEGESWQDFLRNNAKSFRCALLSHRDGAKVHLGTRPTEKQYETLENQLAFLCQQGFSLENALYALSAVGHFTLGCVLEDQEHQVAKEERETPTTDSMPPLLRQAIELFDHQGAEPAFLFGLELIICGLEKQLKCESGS

B1: 5-1.13 (ssRNA)
RNA: GGGAGCUCAGAAUAAACGCUCAACUCCUGUAGUGAAGGCAGAGAAAGGUCGAUACGGACGGAAUGUGAUGGCCUUCGACAUCAGGCCCGGAUCCGGC
Work on B1 yielded a Kd [1] of 0.37 nM.

B2: 5-14.7b (ssRNA)
RNA: GGGAGCUGAGAAUAAACGCUCAACAGGAAACAGCAAGACAAACGAUGGGGAGCGUAAGACUGCGAGUGUCGGAUUCGACAUCAGGCCCGGAUCCGGC
For B2, the Kd [2] was 1.44 nM.

CUUAAGCUUCAACAGUGCUUGAACUUAAG (ssRNA) [Iron Responsive Element (IRE)]: no binding [3].

B3: 5-1.2 (ssRNA)
RNA: GGAUCCAGGCAGAGAAAGGUCGAUACGGACGGAAUGUGAUGGCCUGGAUCC
B3 was tested, and the Kd [4] was 1.6 nM.

B4: 5-1.2m2 (ssRNA)
RNA: B3 RNA with A13U, A15U
B4: no binding [5].

B5: 5-29.13a (ssRNA)
RNA: GGGAGCUCAGAAUAAACGCUCAACUUGCUGCAGAGGGUCGAGAAUAUGUGUGACACUGCGUCGACGGGUUAAGUUCGACAUCAGGCCCGGAUCCGGC
With B5 the Kd [2] was 2.77 nM.

B6: 5-18.13 (ssRNA)
RNA: GGGAGCUGAGAAUAAACGCUCAAUAGGGAGAGAACUGUGUCAGAAUGUAGUGAACCAGACACGGAGUGGAGUAUUCGACAUCAGGCCCGGAUCCGGC
B6 gave a Kd [6] of 0.45 nM.

Source: patent US20110245326, “Post-Transcriptional Regulation Of RNA-Related Processes Using Encoded Protein-Binding RNA Aptamers” (published 2011)
